These results are taken from patent US20240325561A1 (Seagen, published 2024).

What all share (test): cell-based or functional assay
One experiment addresses transferrin receptor (UniProt P02786).
The target of experiment [1] is T1, CD19 (UniProt P15391 20-556, limits assumed).
T1 sequence (looked up): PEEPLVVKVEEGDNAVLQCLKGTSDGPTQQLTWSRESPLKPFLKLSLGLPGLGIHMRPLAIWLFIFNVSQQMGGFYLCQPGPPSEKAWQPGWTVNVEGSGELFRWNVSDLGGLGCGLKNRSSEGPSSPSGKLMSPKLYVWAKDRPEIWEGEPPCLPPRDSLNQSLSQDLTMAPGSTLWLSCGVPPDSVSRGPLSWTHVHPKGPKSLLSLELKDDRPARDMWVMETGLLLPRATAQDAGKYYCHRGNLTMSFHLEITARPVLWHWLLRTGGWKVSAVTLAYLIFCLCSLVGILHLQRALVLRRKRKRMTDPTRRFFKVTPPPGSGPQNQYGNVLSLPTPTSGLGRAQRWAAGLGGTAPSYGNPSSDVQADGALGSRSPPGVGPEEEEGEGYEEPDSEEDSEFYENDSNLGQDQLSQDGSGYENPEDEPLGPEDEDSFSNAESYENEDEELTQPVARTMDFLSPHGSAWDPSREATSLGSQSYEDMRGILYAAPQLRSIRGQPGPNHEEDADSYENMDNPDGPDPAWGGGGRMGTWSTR

The target in experiment [2] is T1, CD19. The source holds these as a separate data set.

transferrin receptor, sequence (P02786 whole entry): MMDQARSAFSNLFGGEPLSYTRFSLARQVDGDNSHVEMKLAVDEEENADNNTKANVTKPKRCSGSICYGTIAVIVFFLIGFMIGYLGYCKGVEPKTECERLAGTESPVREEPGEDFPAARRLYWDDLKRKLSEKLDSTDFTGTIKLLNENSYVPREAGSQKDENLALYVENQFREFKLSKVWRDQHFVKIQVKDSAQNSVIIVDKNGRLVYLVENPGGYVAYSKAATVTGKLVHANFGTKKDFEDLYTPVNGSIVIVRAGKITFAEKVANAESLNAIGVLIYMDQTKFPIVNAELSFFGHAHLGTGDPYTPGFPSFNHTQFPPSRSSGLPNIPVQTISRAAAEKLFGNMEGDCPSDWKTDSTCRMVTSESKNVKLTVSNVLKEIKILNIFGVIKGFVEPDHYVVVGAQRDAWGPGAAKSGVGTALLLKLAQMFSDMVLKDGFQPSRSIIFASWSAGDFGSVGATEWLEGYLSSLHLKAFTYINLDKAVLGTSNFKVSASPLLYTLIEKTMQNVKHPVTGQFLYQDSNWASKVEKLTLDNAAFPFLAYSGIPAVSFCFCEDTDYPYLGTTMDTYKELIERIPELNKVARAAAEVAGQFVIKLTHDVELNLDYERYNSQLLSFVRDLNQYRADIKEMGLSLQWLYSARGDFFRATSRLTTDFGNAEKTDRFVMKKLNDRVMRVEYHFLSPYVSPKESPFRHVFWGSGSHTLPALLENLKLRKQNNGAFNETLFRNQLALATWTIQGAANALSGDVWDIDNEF

In the experiment with transferrin receptor, “8-load anti-transferrin receptor ADC (cOKT9) having -X-D of MDpr-PABA(gluc)-Camptothecin (antibody)” came in with an IC50, cytotoxicity, colorectal cell line HT-29 (TfR copy number 23K) above 1 µM and an IC50, cytotoxicity, melanoma cell line SK-MEL-5 (TfR copy number 21K) above 1 µM.

B1: hBU12-14 (antibody, V domains shown)
VH: QVQLQESGPGLVKPSQTLSLTCTVSGGSISTSGMGVGWIRQHPGKGLEWIGHIWWDDDKRYNPALKSRVTISVDTSKNQFSLKLSSVTAADTAVYYCARMELWSYYFDYWGQGTLVTVSS
VL: EIVLTQSPATLSLSPGERATLSCSASSSVSYMHWYQQKPGQAPRLLIYDTSKLASGIPARFSGSGSGTDFTLTISSLEPEDVAVYYCFQGSVYPFTFGQGTKLEIKR
modifications: antibody carries drug-linker 14 (MDpr-glucuronide-MMAE, no PEG), 8 drugs per antibody
B1: in the experiment with CD19 [1], the “IC50, in vitro cytotoxicity, RL cells” value came out at 61 ng/mL; the “IC50, in vitro cytotoxicity, Ramos cells” value turned out to be 2 ng/mL; the “IC50, in vitro cytotoxicity, SU-DHL-4 cells” value (“IC50 … SU-DHL-4 cells” for short) came out at 22 ng/mL; the “IC50, in vitro cytotoxicity, WSU-DLCL-2 cells” value (from here on “IC50 … WSU-DLCL-2 cells”) stood at 5 ng/mL.

B2: hBU12-18 (antibody, V domains shown)
VH: QVQLQESGPGLVKPSQTLSLTCTVSGGSISTSGMGVGWIRQHPGKGLEWIGHIWWDDDKRYNPALKSRVTISVDTSKNQFSLKLSSVTAADTAVYYCARMELWSYYFDYWGQGTLVTVSS
VL: EIVLTQSPATLSLSPGERATLSCSASSSVSYMHWYQQKPGQAPRLLIYDTSKLASGIPARFSGSGSGTDFTLTISSLEPEDVAVYYCFQGSVYPFTFGQGTKLEIKR
modifications: antibody carries drug-linker 18 (MDpr-Lys(PEG8)-glucuronide-MMAE), 8 drugs per antibody
Turning to B2, in the experiment with CD19 [1], the “IC50, in vitro cytotoxicity, RL cells” value is above 1000 ng/mL; the “IC50, in vitro cytotoxicity, Ramos cells” value stood at 2 ng/mL; the “IC50 … SU-DHL-4 cells” value was found to be 16 ng/mL; the “IC50 … WSU-DLCL-2 cells” value was determined as 211 ng/mL.

B3: hBU12-17 (antibody, V domains shown)
VH: QVQLQESGPGLVKPSQTLSLTCTVSGGSISTSGMGVGWIRQHPGKGLEWIGHIWWDDDKRYNPALKSRVTISVDTSKNQFSLKLSSVTAADTAVYYCARMELWSYYFDYWGQGTLVTVSS
VL: EIVLTQSPATLSLSPGERATLSCSASSSVSYMHWYQQKPGQAPRLLIYDTSKLASGIPARFSGSGSGTDFTLTISSLEPEDVAVYYCFQGSVYPFTFGQGTKLEIKR
modifications: antibody carries drug-linker 17 (MDpr-Lys(PEG12)-glucuronide-MMAE), 8 drugs per antibody
In the case of B3, in the experiment with CD19 [1], the “IC50, in vitro cytotoxicity, RL cells” value was above 1000 ng/mL; the “IC50, in vitro cytotoxicity, Ramos cells” value turned out to be 2 ng/mL; the “IC50 … SU-DHL-4 cells” value is above 1000 ng/mL; the “IC50 … WSU-DLCL-2 cells” value stood at 129 ng/mL.

B4: hBU12-43 (antibody, V domains shown)
VH: QVQLQESGPGLVKPSQTLSLTCTVSGGSISTSGMGVGWIRQHPGKGLEWIGHIWWDDDKRYNPALKSRVTISVDTSKNQFSLKLSSVTAADTAVYYCARMELWSYYFDYWGQGTLVTVSS
VL: EIVLTQSPATLSLSPGERATLSCSASSSVSYMHWYQQKPGQAPRLLIYDTSKLASGIPARFSGSGSGTDFTLTISSLEPEDVAVYYCFQGSVYPFTFGQGTKLEIKR
modifications: antibody carries drug-linker 43 (MDpr-Lys(PEG2)-glucuronide-MMAE), 8 drugs per antibody
Take B4: in the experiment with CD19 [1], the “IC50, in vitro cytotoxicity, RL cells” value worked out at 229 ng/mL; the “IC50, in vitro cytotoxicity, Ramos cells” value came to 2 ng/mL; the “IC50 … SU-DHL-4 cells” value is above 1000 ng/mL; the “IC50 … WSU-DLCL-2 cells” value amounted to 12 ng/mL.

B5: hBU12-16 (antibody, V domains shown)
VH: QVQLQESGPGLVKPSQTLSLTCTVSGGSISTSGMGVGWIRQHPGKGLEWIGHIWWDDDKRYNPALKSRVTISVDTSKNQFSLKLSSVTAADTAVYYCARMELWSYYFDYWGQGTLVTVSS
VL: EIVLTQSPATLSLSPGERATLSCSASSSVSYMHWYQQKPGQAPRLLIYDTSKLASGIPARFSGSGSGTDFTLTISSLEPEDVAVYYCFQGSVYPFTFGQGTKLEIKR
modifications: antibody carries drug-linker 16 (MDpr-Lys(PEG24)-glucuronide-MMAE), 8 drugs per antibody
For the molecule B5, in the experiment with CD19 [1], the “IC50, in vitro cytotoxicity, RL cells” value was above 1000 ng/mL; the “IC50, in vitro cytotoxicity, Ramos cells” value is 4 ng/mL; the “IC50 … SU-DHL-4 cells” value is above 1000 ng/mL; the “IC50 … WSU-DLCL-2 cells” value is 3 ng/mL.

B6: hBU12 32-load conjugate having the -X-D moiety of MDpr-PAB(gluc)-Camptothecin (antibody, V domains shown)
VH: QVQLQESGPGLVKPSQTLSLTCTVSGGSISTSGMGVGWIRQHPGKGLEWIGHIWWDDDKRYNPALKSRVTISVDTSKNQFSLKLSSVTAADTAVYYCARMELWSYYFDYWGQGTLVTVSS
VL: EIVLTQSPATLSLSPGERATLSCSASSSVSYMHWYQQKPGQAPRLLIYDTSKLASGIPARFSGSGSGTDFTLTISSLEPEDVAVYYCFQGSVYPFTFGQGTKLEIKR
modifications: antibody carries PEGylated multiplexed scaffold C with MDpr-PAB(gluc)-Camptothecin, 32 drugs per antibody
As for B6, in the experiment with CD19 [2], the “fold improvement in cytotoxicity against the 8-load conjugate, Raj cells” value is above 5 fold and the “fold improvement in cytotoxicity against the 8-load conjugate, Ramos cells” value was above 5 fold.

B7: hBU12-19 (antibody, V domains shown)
VH: QVQLQESGPGLVKPSQTLSLTCTVSGGSISTSGMGVGWIRQHPGKGLEWIGHIWWDDDKRYNPALKSRVTISVDTSKNQFSLKLSSVTAADTAVYYCARMELWSYYFDYWGQGTLVTVSS
VL: EIVLTQSPATLSLSPGERATLSCSASSSVSYMHWYQQKPGQAPRLLIYDTSKLASGIPARFSGSGSGTDFTLTISSLEPEDVAVYYCFQGSVYPFTFGQGTKLEIKR
modifications: antibody carries drug-linker 19 (MDpr-Lys(PEG4[PEG4]3)-glucuronide-MMAE, branched PEG), 8 drugs per antibody
Consider B7, for which, in the experiment with CD19 [1], the “IC50, in vitro cytotoxicity, RL cells” value was above 1000 ng/mL; the “IC50, in vitro cytotoxicity, Ramos cells” value amounted to 2 ng/mL; the “IC50 … SU-DHL-4 cells” value is above 1000 ng/mL; the “IC50 … WSU-DLCL-2 cells” value was determined as 247 ng/mL.

B8: hBU12-42 (antibody, V domains shown)
VH: QVQLQESGPGLVKPSQTLSLTCTVSGGSISTSGMGVGWIRQHPGKGLEWIGHIWWDDDKRYNPALKSRVTISVDTSKNQFSLKLSSVTAADTAVYYCARMELWSYYFDYWGQGTLVTVSS
VL: EIVLTQSPATLSLSPGERATLSCSASSSVSYMHWYQQKPGQAPRLLIYDTSKLASGIPARFSGSGSGTDFTLTISSLEPEDVAVYYCFQGSVYPFTFGQGTKLEIKR
modifications: antibody carries drug-linker 42 (MDpr-Lys(PEG4)-glucuronide-MMAE), 8 drugs per antibody
On to B8, for which, in the experiment with CD19 [1], the “IC50, in vitro cytotoxicity, RL cells” value is above 1000 ng/mL; the “IC50, in vitro cytotoxicity, Ramos cells” value amounted to 3 ng/mL; the “IC50 … SU-DHL-4 cells” value was above 1000 ng/mL; the “IC50 … WSU-DLCL-2 cells” value was 5 ng/mL.
